experiment: yeast display, Sf9 membrane polyspecificity reagent, FACS + sequencing; frameworks hold sequencing errors
Summary of the method: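 Galactose-induced (36–48 hours) yeast carrying a synthetic nanobody display library were exposed to 10% biotinylated, detergent-solubilized Sf9 membrane reagent at 4 °C for 1 hour. FACS followed streptavidin microbead enrichment, using low and high (top ~1%) gates for expression (anti-HA) and reagent binding (streptavidin). Colony PCR, MiSeq 2 × 250 sequencing and CDR-length filtering followed. Labels for polyreactivity reflect the gate of origin.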

| Sequence | polyreactivity (PSR sort gate) |
| --- | --- |
| QVQLVESGGGLVQPGGSLRLSCAASGFIYSYYAMGLYRPAPGKERELVAVITRSVGSTYYADSVKGRFTISRDNAKNTVYLQMNSLKPEYTAVYYCAAGYFYHFSRYTNRYGYWGQGTQVTVSS | high polyreactivity |
| QVQLVESGGGLVQPGGSLRLSCAASGRIFGRYAMGWYRQAPGKERELVAAISRGGTTNYADSVKGRFTISRDNAKNTVYLQMNSLKPEDTAVYYCAKSGPKRGQYDYWGQGTLVTVSS | high polyreactivity |
| QVQLVESGGGLVQPGGSLRLSCAASGSIFGSYDMGWYRQAPGKERELVAAITYSVGTTYYADSVKGRFTISRDNAKNTVYLQMNSLKPEDNAVYYCAADFAPVGLPSPFAVSEGEDDYWGQGTQVTVSS | low polyreactivity |
| QVQLVESGGGLVQPGGSLRLSCAASGSIFYRNAMGWYRQAPGKERELVAAITWSGVNTYYADSVKGRFTISRDNAKNTVYLQMNSLKPEDTAVYYCAVPSRYWLNRGFDYWGQGTQVTVSS | low polyreactivity |
| QVQLVESGGGLVQPGGSLRLSCAAYGLTFYGYTMGWYRQAPGKERELVASITRSGGSTYADSVKGRFTISRDNAKNTVYLQMNSLKPEDTAVFYCAAVYRARGYYYWGQGTQVTVSS | high polyreactivity |
| QVQLVESGGGLVQQGGILRLSCASSGSNFILNEMGWSRQAPRKDRELVATISSSDTSTYYADSVKGRFTISRDNAKNTVYVQMNSLKPEDTAVYYCNADYYTTSYLQRVYHYGVEYDYWGQGTQVTVSS | low polyreactivity |
| QVQLVESGGGLVQSGGSLRLICAASGRIFPYYAMGWYRQAPGKERELVATIRGRVGTTYYADSVKGRFTISRDNAKNTVYLQMTSLKPEDTAVYYCAKREYSRYTRVFGYGSWGQCTQVTVSS | high polyreactivity |
| QVQLVESGGGLVQSGGSLRLICAASGSTFGRYPMGWYRQAPGKERELVARISSGGSTTYADSVKGRFTISRDNAKNTVYFLRNSLKTEETAVYYSAADTPYWRYDYWGQGTQVTVSS | high polyreactivity |
| QVQLVESGGGLVQSGGSLRLSCAASGGTFRYNAMGRYRQAPGKERELVAAITSVGITNYADSVKGRFTISRDNAKNTVYLQMNSLNPEDTAVYYCAKRYYRYGARSWYYPYDYWGQGTQVTVSS | high polyreactivity |
| QVQLVESGGGLVQSGGSLRLSCAASGITLYWYAMGWYRQAPGKERELVAAITFNGGSTYADSVKGRFTISRDNAKNTVYLQMNSLKPEDTAVYYFASGDGPSLFDYWGQGTQVTVSS | low polyreactivity |
| QVQLVESGGGLVQSGGSLRLSCAASGRIFDWNVMGSYRQAPGKERELVSVINDSTGTTYYADSVKGRFTISRDNAKNTVYLQMNSLKPEDTAVYYCAAYVWISSEEFYYWGQGTQVTVSS | low polyreactivity |
| QVQLVESGGGLVQSGGSLRLSCAASGRIFFYYAMGGYRQAPGKERELVATIRDGGGTTYYADSVKRRFTISIDNAKNTVYLQMNSLKTDDTAFYYCNVDVWRKYYYWGQGTQVTVSS | low polyreactivity |
| QVQLVESGGGLVQSGGSLRLSCAASGRIFYYNAMGWYRQAPGKERELVAAITSSSGSSTYYADSVKGRFTISRDNAKNTVYLQMNSLKPEDTAVYYCAADATFIIRYLSRSDYWGQGTQVTVSS | low polyreactivity |
| QVQLVESGGGLVQSGGSLRLSCAASGRIIKSYAMGRYRQAPGKERELVAAISRSGGRTYYADSVKGRFSISRDNAKNTVYLQMISLKPEDTAVYYCAATTFVAPSWGQGTQVTVSS | low polyreactivity |
| QVQLVESGGGLVQSGGSLRLSCAASGRTFGYYDMGWYRQAPGKERELVASITRRGGSTYYADSVKGRFTISRDNAKNTVYLQMNSLKPEDTAGYYCAARYKARYEPARYDYWGQGTQVTVSS | high polyreactivity |
| QVQLVESGGGLVQSGGSLRLSCAASGRTFSYYAMGWYRQAPGKERELVAAISSGGSTNYADSVKGRFTISRDNAKNTVYLQMNSLKPEDTEVYYCATSSIWGSGRVRWVTYYYWGQGTQVTVSS | low polyreactivity |
| QVQLVESGGGLVQSGGSLRLSCAASGRTFYDNVMGWYRQAPGKERELVAAISSGGSTNYADSVKGRFTISRDNAKNTVYLQMNSLKPEDTAFYYCATIGGGGWAYEYWGQGTQVTVSS | low polyreactivity |
| QVQLVESGGGLVQSGGSLRLSCAASGRTFYGNAMGWYRQAPGKERELVAAITSSGGSTYYADSVKGRFTISRDNAKNTVYLQMNSLKPEDNAVYYCAAYTYLEDFESWGQGTQVTVSS | high polyreactivity |
| QVQLVESGGGLVQSGGSLRLSCAASGRTLGYNAMGWYRQAPGKERELVASINSGVSTNYADSVKGRFTISRDNAKNTVYLQMNSLKPEDTAVYYCAAEKYGRGDGREGWEYDYWGQGTQVTVSS | low polyreactivity |
| QVQLVESGGGLVQSGGSLRLSCAASGSIFDGYAMGWYRQAPGKERELVAAISKGGTRTYYADSVKGRFTISRDNAKNTVYLQMNSLKPEDTAVYYGNAYFRREPDDGDYDYWGQGTQVTVSS | high polyreactivity |
| QVQLVESGGGLVQSGGSLRLSCAASGSIFTPYSMGWYRQAPGKERELVAGISYRGGTTYYADSVKGRFTISRDNAKNTVYLQMNSLKPEDYAVYYCAAAASSPGGWFYYWGQGTQVTVSS | high polyreactivity |
| QVQLVESGGGLVQSGGSLRLSCAASGSTFSINAMGWYRQAPGKERELVAAITWRGVRTYYADSVKGRFTITRDNAKNTVYFQMNSLKPEDTAVYYCAADVVVAGHPGFDYWGQGTQVTVSS | high polyreactivity |

| Sequence | polyreactivity (PSR sort gate) |
| --- | --- |
| QVQLVESGGGLVQSGGSLRLSCAASGYIFGVNAMGWYRQAPGKERELVAAIDSGSRTYYADSVKGRFTISRDNAKNTVYLQMNSLIPEDTAVYYCATNFYVSYGGGYYTIWYDYWGQGTQVTVSS | low polyreactivity |
| QVQLVESGGGLVQSGGSLRLSCAASGYIFRFNAMGWYRQAPGKEREMVAVITSGARTYYADSVKGRFTISRDNAKNTVYLQMNSLKPEDTAVYYCNAGARRYLYDYWGHGTQVTVSS | low polyreactivity |
| QVQLVESGGGLVQSGGSLRLSSAAYGNTFFPYTIGRYRQAPGKERELVAAISWNGGTTYYADSVKGRFTISRDNAKNTVYLQMISLKPEDSAVYYCAAPRASGYYWGQGTQVTVSS | high polyreactivity |
| QVQLVESGGGLVQSGGTLRLSWAASGFSFAGNAMGWYRLAPGKERELVAVISKRGGPTYYADSVKGRFTFSRDNAKNTVDLQMNSLKPEDTAVYYCAADSGGPGYAMDYWGQGTEVTVSS | high polyreactivity |
| QVQLVESGGGLVQSVGSLRLSCAASGRSFWINTMGWYRQAPGKERELLAAITSGGSTKYADSVKGRFTISRDNAKNTVYFQMNSLKPEDCAVYYCARRFRPNDVWPSHRGYGYWGQGTQVSVSS | low polyreactivity |
| QVQLVESGGGLVQTGGSLRLSCAASGSIYGEYAMGWYRQSPGKEREFVADITWSDGSTYYADSVKGRFTISRDNAKNTVYLQMNSLKPEDTAVYYCAADSVLDRQVLYLWPWYLGDYWGQGTQVTVSS | low polyreactivity |
| QVQLVESGGGLVQTGGSLRLSCAASGSTFYYYAMGWYRQAPGKERELVAGISWGGGSTYYADSVKGRFTISRDNAKNTVYLQMNSLKPEDTAVYYCNALNPNSYDYWGQGTLVTVSS | low polyreactivity |
| QVQLVESGGGLVQVGGSLRLSCAASGFTFYDYAMGWYRQAPGKERELVAAISRGGSTYYADSVKGRFTISRDNAKNTVYLQINSLIPEDTAVYYCNARPTRIYHGMGYWGQGTQVTVSS | low polyreactivity |
| QVQLVESGGGLVQVGGSLRLSCAASGRTFWWYAMGWYRQAPGKERELVAAISRGSTNYADSVKGRFTISRDNAKNTVYLQMNSLKPEDTAVYYCNAVSLYQSHDYDYWGQGTQVTVSS | low polyreactivity |
| QVQLVESGGGLVRAGGSLRLSCAASGFIFTSYVMGWYRQAPGKERELVAAITSGNSTYYADSVKGRFTISRDNAKNTVYLQMNSLKPEDTAVYYCTADSYHTYYYWYDYWGLGTQVTVSS | low polyreactivity |
| QVQLVESGGGLVRAGGSLRLSCAASGRIFHGNAMGWYRQAPGKERELVAAITWGGTRTYYADSVKGRFTISRDNAKNTVYLQMNSLKPEDTAVYYCAKAGTGFYNSWWEDYWGQGTQVTVSS | low polyreactivity |
| QVQLVESGGGRVQAGGSLRLSCAASGSIFTTYTMGWDRQAPGKESEWVAAITSSSGSTYYADSVKGRFTISRDNAKNTVYLQMNSLKPEDTAVYYCAARGYFDFSRYDSWGHGTQVTVSS | low polyreactivity |
| QVQLVESGGGRVQAGGTHRLRSAASGFTFRQYAMGWYRPAPGKERELLAAISRSGSRTYYADSVKRRFTISRDNAKHTVYLQMNCLKPEDTAVYYCYAVFSTFTGEYYWGHGTQVTVSS | high polyreactivity |
| QVQLVESGGGSVQAGGSLRLSCAASGFNFVYYAMGWYRQAPGKERELVAAITWSGGSTYADSVKGRFTISRDNAKNTVYLQMNSLKPEDTAVYYCAAEYDISSGYGFDFDYWGQGTQVTVSS | low polyreactivity |
| QVQLVESGGGVIQAGGSLRLSCAASGRTFYRNTMGWYRQAPGKERELVASISRGGRTNYADSVKGRFTISRDNAKNTVYLQMNSLKREDTAVYYCAKQTSYGGIIRYYASCYGYWGQGTQVTVSS | high polyreactivity |
| QVQLVESGGGVLQAGGSLRLSCAASGRIFYRYPMGWYRKAPGKVRELVAAISGSVGSTYADSVKGRLTISRDNAKNTVYLQMKSMKPEDTAVYYFDRETYRRYGAYDYWGQGTQVTVSS | low polyreactivity |
| QVQLVESGGGVQAGCSLRLSCAASGRTFVPYGMGWYRQAPGKERELVAAISSIGDSTSYADSVKGRFTISRDNAKNTVYLQMNSLKPEDSAVYYCADVTWYDEYDSWGKGTQVTVSS | low polyreactivity |
| QVQLVESGGGVVHAGGSLRLSCAASGLIFRYYAVGGYRPAPGKERELVARISTRGGSTYYADSVKGRFTISRDNAKNTVYLPMNSLKPEDTAVYYCAAVNGLYYHKYGYYWGQGTQVTVSS | high polyreactivity |
| QVQLVESGGGVVQAGGRLRLSCAASGFILGYNDMGWYRPAPGKERELVAAISSSGGSTYYADSVKGRFTISRDNAKNTVYLQMNSLKPEDTAVYYCGLPYQTSYGEYDYWGQGTQVTVSS | low polyreactivity |
| QVQLVESGGGVVQAGGRLRLSCSASGRTFPWYAMGWSRQEPGKEREVVAAITQSGGSTYYADSVKGRFTISRDNANNTVYLQMNSLKPEDTAGFYCAVASVNTVFYGQDHYYYDYGYWGQGTHVTVSS | low polyreactivity |
| QVQLVESGGGVVQAGGSLRLICAATGSIFGYAMGWYRQAPGKERELVGAISFSGVSTYYADSVMGRFTISRDNAKNTVYLEMNSLKPEDTAVYYSNAYSDGDEDYWGQGTQGTVSS | low polyreactivity |

Reference: the nanobody polyreactivity screen of Harvey et al. (2022)
